For one protein, Km and kcat results are on record in PMC8862428, “Modeling the stimulation by glutathione of the steady state kinetics of an adenosine triphosphate binding cassette transporter” (Protein Science : A Publication of the Protein Society, 2021).

Substrate in this series: Nc1ncnc2c1ncn2[C@@H]1O[C@H](COP(=O)(O)OP(=O)(O)OP(=O)(O)O)[C@@H](O)[C@H]1O
Nature of the series: molybdate phosphate-release ATPase assay, global fit to nonessential activator model. It is filed as biochemical, Novosphingobium aromaticivorans. As to conditions: nanodiscs (MSP1D1/POPC), basal ATPase, constant for transporter without GSSG, Mg complex of ATP, 100 mM NaCl, 20 mM Tris pH 7.5, 37 °C. An excerpt: molybdate phosphate-release ATPase assay, global fit to nonessential activator model on NaAtm1

B1: NaAtm1 (Novosphingobium aromaticivorans DSM 12444) (protein)
chain: MPPETATNPKDARHDGWQTLKRFLPYLWPADNAVLRRRVVGAILMVLLGKATTLALPFAYKKAVDAMTLGGGAQPALTVALAFVLAYALGRFSGVLFDNLRNIVFERVGQDATRHLAENVFARLHKLSLRFHLARRTGEVTKVIERGTKSIDTMLYFLLFNIAPTVIELTAVIVIFWLNFGLGLVTATILAVIAYVWTTRTITEWRTHLREKMNRLDGQALARAVDSLLNYETVKYFGAESREEARYASAARAYADAAVKSENSLGLLNIAQALIVNLLMAGAMAWTVYGWSQGKLTVGDLVFVNTYLTQLFRPLDMLGMVYRTIRQGLIDMAEMFRLIDTHIEVADVPNAPALVVNRPSVTFDNVVFGYDRDREILHGLSFEVAAGSRVAIVGPSGAGKSTIARLLFRFYDPWEGRILIDGQDIAHVTQTSLRAALGIVPQDSVLFNDTIGYNIAYGRDGASRAEVDAAAKGAAIADFIARLPQGYDTEVGERGLKLSGGEKQRVAIARTLVKNPPILLFDEATSALDTRTEQDILSTMRAVASHRTTISIAHRLSTIADSDTILVLDQGRLAEQGSHLDLLRRDGLYAEMWARQAAESAEVSEAAE
notes: His-tag (NiNTA) purified from E. coli BL21-gold (DE3); 135 kDa transporter (homodimer); in DDM/C12E8 detergent, MSP1D1/POPC nanodiscs or proteoliposomes
On to B1, for which the Km was found to be 1410 ± 80 µM and the kcat turned out to be 0.531 ± 0.0173 s⁻¹.
